Laboratory results taken from patent US11110154.

Key:
Assay in all cases: cell_activity
[1] = test system: ZFP 33074-KOX (ZFP-TF repressor) (synthetic construct); settings: lentiviral, CAG17/48 neurons; apoptosis ~50% to 20%; AAV in Q175 mice reduced mHtt aggregates (P<0.001); indirect evidence of binding; scale: % increase of intracellular ATP in HD neurons
[2] = test system: ZFP 30640 (ZFP-TF repressor) (synthetic construct); settings: AAV, Q175 mouse striatum (~179 CAG), injected at 2 months; indirect evidence of binding
[3] = test system: ZFP 30645 (ZFP-TF repressor) (synthetic construct); settings: AAV, Q175 mouse striatum (~179 CAG), injected at 2 months; indirect evidence of binding

AGCAGCAGCAGCAGCAGCAGCAGCAGCA (double strand) [Htt CAG repeat, 33074 target]
activity [1]: 60

CAGCAGCAGCAGCAGCAGCAGCAGCAGC (double strand) [Htt CAG repeat, 30640 target]
activity (% reduction of nuclear Htt aggregates) [2]: > 90

CAGCAGCAGCAGCAGCAGCAGCAGCAGC (double strand) [Htt CAG repeat, 30645 target]
activity (% reduction of nuclear Htt aggregates) [3]: > 90
